{
  "source": "paper PMC9972897",
  "about": "(Science immunology, 2023)",
  "binders": {"B1": {"name": "fp.007 monoclonal antibody (IgG) (antibody, V domains shown)", "VH": "EVQLVESGGGLVKPGGSLRLSCAGTGFIFSDAWMTWVRQAPGKGLEWVGRIKSKADGGTTDYAAPVKGRFTISRDDSKNTLYLEINSLKTEDTAVYYCTTGRSRYCIGAVCYYFDHWGQGTLVTVSS", "VL": "not shown"}, "B2": {"name": "sd1.040 monoclonal antibody (IgG) (antibody, V domains shown)", "VH": "QVQLVQSGAEVKKPGASVKVSCKASGYTFTSFYIHWVRQAPGQGLEWMGIIDPSGGSTSYPQKFQGRVTMTRDTSTSTVYMDLSSLRSEDTAVYYCTRDGSAGDNSWFDPWGQGTLVTVSS", "VL": "not shown"}, "B3": {"name": "sd1.040 Fab (Fab, V domains shown)", "VH": "B2 VH", "VL": "not shown"}, "B4": {"name": "fp.006 monoclonal antibody (IgG) (antibody, V domains shown)", "VH": "EVQLVESGGGVVQPGGSLRLSCAASGFNFNNYALHWVRQAPGKGLEWVAIISYEARNKKYGVSVMGRFSISRDNSKSIMYLEMNSLRVEDTGVYYCARDLFLSDYDRSGYDPTRGGFDHWGQGTLVTVSS", "VL": "EIVMTQSPATLSVSPGERATLSCRASQSVSSSLAWYQHRFGQAPRLLISGASTRATGIPGRFSGSGSGTEFTLTISSLQSEDVAVYYCQQYGDWPLVTFGGGTKVEIK"}, "B5": {"name": "fp.006 Fab (Fab, V domains shown)", "VH": "B4 VH", "VL": "B4 VL"}, "B6": {"name": "hr2.023 monoclonal antibody (IgG) (antibody, V domains shown)", "VH": "QVQLVQSGAEVKKPGASVKVSCRASENIFSDSYLHWVRQAPGQGLEWMGIITPSGDKTFYAQQFQGRLTMTRDTPTNTLHMDLRGLTSADTAIYYCARQATKGGWDYWGQGTLVTVSS", "VL": "EIVLTQSPGTLSLSPGESATLSCRASQSVTRNYLAWYQQQPGQAPRLLIYGASNRATGVPDRFSGSGSGTDFTLTISRLEPEDFAVYYCQQYGSSPPTFIFGPGTKVDIK"}, "B7": {"name": "hr2.016 monoclonal antibody (IgG) (antibody, V domains shown)", "VH": "EVQLLESGGGLVQPGGSLRLSCAASGFMFSKYAMTWVRQTPGKGLEWVSVISGGGGSTYYADSVKGRFTISRDNSKNTLYLQMNSLRAEDTAVYYCAKLLVVFVIDYWGQGALVTVSS", "VL": "EIVLTQSPGTLSLSPGERATLFCRASQSVSSNLAWYQQKPGRAPRLLISGASSRATGIPDRFSGSGSGTDFTLTISRLEPEDFAVYYCQQYGSSPPTFGQGTKVEIK"}},
  "key": {"[1]": {"molecular_target": "T1, SARS-CoV-2 S (ancestral), C-terminally truncated, expressed on 293T cells (SARS-CoV-2 (ancestral, Wuhan-Hu-1), UniProt P0DTC2)", "test": "flow cytometry on cells", "details": "one partner purified"}, "[2]": {"molecular_target": "T1, SARS-CoV-2 S (ancestral), C-terminally …", "test": "cell-based or functional assay"}, "[3]": {"molecular_target": "SD1-RBD of SARS-CoV-2 S (ancestral), aa 319-591 (SARS-CoV-2, ancestral (Wuhan-Hu-1; …, UniProt P0DTC2)", "test": "SPR", "details": "both partners purified"}, "[4]": {"molecular_target": "SARS-CoV-2 fusion peptide (FP) coldspot peptide, 812-831 (SARS-CoV-2 (ancestral), biotin-Ahx at the N-terminus; C-terminal amidation)", "test": "crystal structure", "details": "both partners purified"}},
  "data": [
    {"binder": "B1", "values": [
      {"measurement": "binding result", "setting": "[1]", "result": "binds"}
    ]},
    {"binder": "B2", "values": [
      {"measurement": "IC50 of neutralisation of SARS-CoV-2 pseudovirus", "setting": "[2]", "result": 0.245, "unit": "µg/mL"}
    ]},
    {"binder": "B3", "values": [
      {"measurement": "Kd", "setting": "[3]", "result": 4.2, "unit": "nM"}
    ]},
    {"binder": "B4", "values": [
      {"measurement": "IC50 of neutralisation of SARS-CoV-2 pseudovirus", "setting": "[2]", "result": 0.737, "unit": "µg/mL"},
      {"measurement": "fold increase of binding (gMFI) with soluble ACE2", "setting": "[1]", "result": 5.8, "unit": "fold"}
    ]},
    {"binder": "B5", "values": [
      {"measurement": "binding result", "setting": "[4]", "result": "binds"}
    ]},
    {"binder": "B6", "values": [
      {"measurement": "fold increase of binding (gMFI) with soluble ACE2", "setting": "[1]", "result": 2.4, "unit": "fold"}
    ]},
    {"binder": "B7", "values": [
      {"measurement": "IC50 of neutralisation of SARS-CoV-2 pseudovirus", "setting": "[2]", "result": 0.01, "unit": "µg/mL"},
      {"measurement": "fold increase of binding (gMFI) with soluble ACE2", "setting": "[1]", "result": 2.3, "unit": "fold"}
    ]}
  ]
}
